Laboratory results: US20240174748A1 (INNATE PHARMA, published 2024)
Changes are numbered by the printed parent chain.

B1: NKp46-4 H2L2 (antibody, human IgG1, V domains shown)
VH: QVQLVQSGAEVKKPGASVKVSCKASGYTFTSFTMHWVRQAPGQGLEWIGYINPSSGYTEYNQKFKDRTTITADKSTSTAYMELSSLRSEDTAVYYCVRGSSRGFDYWGQGTLVTVSS
VL: DIQMTQSPSSLSASVGDRVTITCRASENIYSNLAWFQQKPGKAPKLLVYAATNLADGVPSRFSGSGSGTDYTLTISSLQPEDFATYYCQHFWGTPRTFGGGTKVEIK
notes: Produced as human IgG1
B2: NKp46-4 H3L2 (antibody, human IgG1, V domains shown)
VH: B1 VH with I70L
VL: B1 VL
notes: Produced as human IgG1

Biological target: T1, Cynomolgus NKp46 (Macaca fascicularis (cynomolgus), UniProt Q95JB9 22-254)
T1 construct: also called cynomologus NKp46; macaca fascicularis NKp46
Assay: not stated (human IgG1)

T1 sequence (Q95JB9 22-254): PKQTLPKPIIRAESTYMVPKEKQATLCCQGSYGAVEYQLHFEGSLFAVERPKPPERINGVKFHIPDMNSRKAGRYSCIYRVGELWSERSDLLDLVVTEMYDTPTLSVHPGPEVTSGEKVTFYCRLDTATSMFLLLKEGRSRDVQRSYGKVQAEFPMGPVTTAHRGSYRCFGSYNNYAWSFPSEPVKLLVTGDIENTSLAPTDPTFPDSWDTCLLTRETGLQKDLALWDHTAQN

Binder	fold lower affinity for cynomolgus NKp46 than for human NKp46 [fold]
B1	10
B2	10
